In US20170087188A1, “WNT INDUCED MOTILITY AND ENHANCED ENGRAFTMENT OF CELLS” (OTTAWA HOSPITAL RESEARCH INSTITUTE, priority 2014, published 2017):
Values joined by “and” are separate entries in the source; they are usually repeats but may differ in a detail not shown here. Identical values can stand only once. “Also recorded” adds a separate entry of the source.

Experiments:
C2C12 cells = assay: Scratch migration assay, C2C12 cells; format: cell-based; settings: Mitomycin-C treated, 24 h, Wnt 100 ng/mL, vs Veh. or empty vector
Protocol: Cellular polarization is indicative of increased motility (de Forges et al., 2012). Scratch assays were used to test whether Wnt7a and Fzd7 polarization affect cell motility. To exclude effects on the localization of cells arising from altered rates of proliferation, cells were treated with Mitomycin-C.
(§1) Following plasmid transfection or application of Wnts (R&D Systems), the cells were treated with Mitomycin-C for 2 h (50 μg/mL). Subsequently, the monolayer of cells was scraped in a straight line. The plates were then extensively washed with culture medium and incubated for 24 h before analysis. Analysis was performed using DAPI staining after matching the reference points and enumeration of DAPI-stained nuclei in the scar was performed. Unless otherwise indicated, Wnt7a and Wnt3a were used at a concentration of 100 ng/mL in scratch assays. Monodansylcadaverine (MDC, 30432, Sigma) was used in scratch assays at a concentration of 50 μm.

Fzd7 = assay: Subcellular distribution of Fzd7-YFP in primary myoblasts; format: cell-based; settings: Wnt7a stimulated vs controls
Protocol: The effect of Wnt7a treatment on the subcellular distribution of Fzd7 was tested. […] Furthermore, it was observed that myoblasts exposed to conditioned medium containing HA epitope tagged Wnt7a (Wnt7a-HA) quickly endocytosed this factor. After 3 h of incubation and several subsequent washing steps, endocytosed Wnt7a-HA was detectable for ≧72 h in intracellular structures in primary myoblasts (FIG. 4E) and C2C12 cells (FIG. 11E).

[1] = system: Rac1 association with Dvl2; assay: Co-IP of Rac1 with Dvl2 in primary myoblasts; format: cell-based, mouse; settings: Wnt7a stimulated (infected) primary myoblasts vs EV
Text: (§2) Wnt7a signaling in satellite cells involves Rac1. Polarized peripheral Fzd7-tdTomato colocalized with GFP-Rac1 in C2C12 cells (FIG. 3A). It was hypothesized that the small GTPase Rac1 might also be involved in Wnt7a mediated cell polarization and migration. […] Various forms of Wnt signaling require Disheveled (Dvl) proteins.
(§3) For co-immunoprecipitation (CoIP) experiments and the Rac1 activation assay, satellite cell-derived primary myoblasts were infected with retroviruses generated from empty pHAN or from pHAN-Wnt7a-HA (Kuroda et al., 2013). Dvl2 knockdown was performed with an ON-TARGETplus siRNA SMARTpool (L-040921-01, Thermo Fisher Scientific) (Wu et al., 2008) using Lipofectamine RNAiMAX (Life Technologies) according to the manufacturer's instructions. As a control for the knockdown, a non-silencing siRNA SMARTpool was used (D-001810-10, Thermo Fisher Scientific). Cell extracts were obtained through RIPA buffer lysis in the presence of a protease inhibitor cocktail (Nacalai). For CoIP of Rac1 with Dvl2, rabbit anti-Dvl2 antibody was coupled to Protein A Dynabeads (Life Technologies). Denaturing SDS-PAGE was performed using standard techniques. Rac1 activation assay was performed according to the manufacturer's instructions (Pierce).

Rac1 = Rac1 activation assay in mouse primary myoblasts; format: cell-based; settings: Wnt7a overexpression (Wnt7a-HA retrovirus) vs empty virus
Text: as §2, §3

satellite cells = assay: Live imaging of satellite cells on single cultured myofibers; format: cell-based, mouse; settings: Wnt7a 1.5 μg/mL; compared to Veh.
Protocol: The effect of Wnt7a on satellite cell migration was measured using a time lapse imaging technique previously employed to monitor satellite cells on single muscle myofibers (Siegel et al., 2009). Wnt7a increased the mean velocity of satellite cells by 31% when compared to Veh. (FIG. 2F). […] (FIG. 2G).
Single cell imaging of cells transfected with Fzd7-YFP or YFP was performed on an LSM710 confocal microscope under 5% CO2 at 37° C. in phenol-red free DMEM (Life technologies) containing 10% FBS. Imaging of satellite cells on fibers was performed as described (Siegel et al., 2009). For live imaging of satellite cells on myofibers, Wnt7a was used at a concentration of 1.5 μg/mL. Satellite cell time-lapse microscopy was performed using a Leica DMI 5100 inverted microscope and MetaMorph 7.6.1 Software (Molecular Devices) with time points being acquired every 7 minutes in a stagetop incubator (LiveCell Imaging). ImageJ analyzed the time-lapse data to calculate the velocity, defined as distance (um)/time (hr), between time points and the average velocity of each cell was calculated. The maximum velocity is defined as the highest velocity obtained by a single cell during the tracking period.

human primary myoblasts = assay: Scratch migration assay, human primary myoblasts; format: cell-based
Protocol: The translational relevance of Wnt7a treatment was examined in human primary myoblasts.
as §1

primary myoblasts = assay: Proliferation of primary myoblasts over five days; format: cell-based; settings: 3 h exposure; various concentrations; over 5 days
Protocol: The proliferation of primary myoblasts following a 3 h exposure to various concentrations of Wnt7a was analyzed to control for the effect being due to changes in the cell cycle status of the transplanted cells.

mdx mice = assay: Transplantation of Wnt7a-treated human primary myoblasts into mdx mice; format: in vivo, mouse
Protocol: The effectiveness of Wnt7a on human myoblasts, in vivo, was tested using the same experimental paradigm that we previously used for mouse myoblasts (FIG. 7C). 100,000 human myoblasts were treated ex vivo with Wnt7a for 3 h, and transplanted into immunosuppressed mdx mice. […] (FIG. 7D). […] Moreover, the mean maximal distance between dystrophin-expressing myofiber clusters increased from 1.8 mm under the Veh. condition to 3.0 mm for Wnt7a treatment (FIG. 7F).
Transplantation of zsGreen-expressing satellite cells or myoblasts into mdx mice was performed as previously described (Bentzinger et al., 2013c). Before transplantation the cells were treated for 3 h with Wnt7a, Wnt5a, or Wnt3a (R&D Systems) at a concentration of 50 ng/mL for freshly isolated satellite cells or with 100 ng/mL for cultured cells. Myoblasts expressing tdTomato were transplanted into uninjured muscles of C57BL/6 mice that were implanted with an osmotic pump (Alzet) delivering FK506 (Sigma) at 2.5 mg/kg/day 3 days prior to the transplantations. In some experiments, the injection site was marked with blue fluorescent microspheres (2 μm, Life Technologies) that were added at a concentration of 1:100 (vol/vol) to the cell suspension. 10 μl of the cell-microsphere suspension was injected into the TA of each mouse using a Hamilton syringe.

B1: Wnt7a: non-canonical Wnt polypeptide (R&D Systems) used to treat or load myogenic cells (protein, UniProt O00755 32-349, looked up)
Protein Wnt-7a: LGASIICNKIPGLAPRQRAICQSRPDAIIVIGEGSQMGLDECQFQFRNGRWNCSALGERTVFGKELKVGSREAAFTYAIIAAGVAHAITAACTQGNLSDCGCDKEKQGQYHRDEGWKWGGCSADIRYGIGFAKVFVDAREIKQNARTLMNLHNNEAGRKILEENMKLECKCHGVSGSCTTKTCWTTLPQFRELGYVLKDKYNEAVHVEPVRASRNKRPTFLKIKKPLSYRKPMDTDLVYIEKSPNYCEEDPVTGSVGTQGRACNKTAPQASGCDLMCCGRGYNTHQYARVWQCNCKFHWCCYVKCNTCSERTEMYTCK
increase in cell migration (C2C12 cells): 443% | subcellular distribution of Fzd7-YFP (Fzd7): decreases the abundance of peripheral Fzd7-YFP; also recorded: higher abundance of large intracellular aggregates and reduced peripheral Fzd7-YFP | Rac1 association with Dvl2 [1]: increased Rac1 association with Dvl2 | activation of Rac1 (Rac1): significantly increased the activation of Rac1 | higher directional persistence (satellite cells): 36% | increase in mean velocity of satellite cells (satellite cells): 31% | mean maximal velocity (satellite cells): not significantly different; also recorded: not substantially different | human myoblast migration (human primary myoblasts): significantly increases cell migration; also recorded: significantly increased human myoblast migration | rate of proliferation of primary myoblasts (primary myoblasts): No change in the rate of proliferation | increase in the number of dystrophin-expressing myofibers (mdx mice; 100,000 human myoblasts treated ex vivo 3 h, immunosuppressed mdx mice, compared to Veh.): 226% and > 200% | mean maximal distance between dystrophin-expressing myofiber clusters (mdx mice; human myoblasts treated ex vivo 3 h, mdx mice): 3.0 mm | increase in fiber feret (mdx mice; myofibers fused to Wnt7a-treated human myoblasts, mdx mice): 29%
